# Laboratory results: PMC8554075
# Target: unmutated common ancestor of the AB-3467 clonal lineage, expressed as human IgG1 (human V(D)J (Ig-humanized TRIANNI mouse))
# Assay: BLI
substance,measurement,value
SARS-CoV-2 receptor-binding domain (from UniProt P0DTC2 333-528) (domain or fragment),Kd,0.499 µM
